{"source": "paper PMC12431651", "about": "(2025)", "binders": {"B1": {"name": "NS1 (protein)", "chain": "MGSNSLSMIKVRLQNLFDNDEVALLKITCYTDKLIHLTNALAKAVIHTIKLNGIVFVHVITSSDICPNNNIVVKSNFTTMPVLQNGGYIWEMMELTHCSQPNGLLDDNCEIKFSKKLSDSTMTNYMNQLSELLGFDLNP"}}, "molecular_target": "T1, MED25 ACID (Homo sapiens, UniProt Q71SY5)", "T1 chain": "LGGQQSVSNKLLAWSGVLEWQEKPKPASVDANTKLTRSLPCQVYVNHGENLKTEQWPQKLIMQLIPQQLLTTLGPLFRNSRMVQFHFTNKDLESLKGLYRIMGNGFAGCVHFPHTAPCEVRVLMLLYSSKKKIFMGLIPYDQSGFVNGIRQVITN", "assay": "BLI", "data": [{"binder": "B1", "values": [{"measurement": "Kd", "value": 16, "unit": "nM"}]}]}
